# Reference: patent US20220153819A1 (Regeneron, published 2022)
# Several values for one entry are separate records, joined by “and”; a condition that tells them apart may be missing. Equal values may be shown once. Read-outs that look alike come from different tables or passages of the source.
# T1: hGITR.mmh (human)
# T1 chain: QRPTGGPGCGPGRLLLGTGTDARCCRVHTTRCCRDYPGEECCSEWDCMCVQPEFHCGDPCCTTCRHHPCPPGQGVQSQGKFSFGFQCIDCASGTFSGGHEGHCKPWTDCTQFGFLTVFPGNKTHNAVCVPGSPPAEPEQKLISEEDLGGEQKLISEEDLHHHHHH
# T2: human GITR on Jurkat/hGITR/hCD20 cells (human, UniProt Q9Y5U5 26-241)
# T2 sequence (looked up): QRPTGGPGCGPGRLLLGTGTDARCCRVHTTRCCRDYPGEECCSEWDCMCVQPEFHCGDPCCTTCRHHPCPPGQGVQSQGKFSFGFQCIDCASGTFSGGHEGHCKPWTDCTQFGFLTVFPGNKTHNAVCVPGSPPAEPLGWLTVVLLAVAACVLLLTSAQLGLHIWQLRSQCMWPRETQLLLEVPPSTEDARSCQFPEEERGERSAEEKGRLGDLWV
# Key:
# [1] = target: T3, human complement component 1q (C1q) (human, UniProt P02745 23-245; P02746 28-253; P02747 29-245)
# [2] = target: T1, hGITR.mmh
# [3] = target: T2, human GITR on Jurkat/hGITR/hCD20 cells
# [4] = target: T4, biotinylated human C1q (human, UniProt P02745 23-245; P02746 28-253; P02747 29-245)
# [5] = target: T1, hGITR.mmh
# [6] = target: T3, human complement component 1q (C1q); remark: listed apart in the source
# [7] = target: T4, biotinylated human C1q; remark: listed apart in the source
# [8] = target: T1, hGITR.mmh
# [9] = target: T5, hemagglutinin (HA) on A/Puerto Rico/08/1934 (H1N1)-infected MDCK cells (Influenza A virus A/Puerto Rico/08/1934 …, UniProt P03452 18-565); assay: cell ELISA on fixed A/Puerto Rico/08/1934 (H1N1)-infected MDCK cells
# T5 construct: whole, on cells; also called Influenza HA
# [10] = target: T6, IsdB.6×(His) (Staphylococcus aureus, UniProt A6QG30 41-613); assay: SPR (Biacore 8k), 25C; IsdB-6xHis captured via anti-His, bsAb injected
# [11] = target: T7, IsdB on the surface of S. aureus Newman Δspa (Staphylococcus aureus, UniProt A6QG30 41-613); assay: ELISA, plate coated with S. aureus Newman Δspa, luminescence
# T7 construct: whole, on cells; also called iron-regulated surface determinant protein B
# [12] = target: T4, biotinylated human C1q
# [13] = target: T6, IsdB.6×(His); assay: SPR (Biacore T200), 37C; antibody captured, IsdB.6xHis injected
# [14] = target: T3, human complement component 1q (C1q); assay: cell-based or functional assay
# [15] = target: T3, human complement component 1q (C1q); remark: listed apart in the source
# [16] = target: T4, biotinylated human C1q; remark: listed apart in the source
# [17] = target: T6, IsdB.6×(His); assay: SPR (Biacore 8k), 37C; IsdB-6xHis captured via anti-His, bsAb injected
# [18] = target: T3, human complement component 1q (C1q); assay: SPR (Biacore T200), 25C; bsAb captured via anti-human F(ab')2, hC1q injected
# [19] = target: T3, human complement component 1q (C1q); assay: SPR (Biacore T200), 37C; bsAb captured via anti-human F(ab')2, hC1q injected
# [20] = target: T3, human complement component 1q (C1q); remark: listed apart in the source
# [21] = target: T6, IsdB.6×(His); assay: SPR (Biacore T200), 37C; bsAb captured, IsdB-6xHis injected
# [22] = target: T5, hemagglutinin (HA) on A/Puerto …; assay: cell-based or functional assay
# [23] = target: T4, biotinylated human C1q; assay: SPR (Biacore), 37C; biotinylated hC1q captured at low density, bsAb injected
# [24] = target: mouse C1q (mouse, UniProt P98086 23-245; P14106 26-253; Q02105 30-246); assay: not described
# [25] = target: T6, IsdB.6×(His); assay: SPR (Biacore T200), 25C; bsAb captured, IsdB-6xHis injected
# [26] = target: T6, IsdB.6×(His); assay: SPR (Biacore), 37C; IsdB.6xHis captured, bsAb injected
# [27] = target: T4, biotinylated human C1q; remark: listed apart in the source
# [28] = target: T4, biotinylated human C1q; remark: listed apart in the source
# [29] = target: T3, human complement component 1q (C1q)
# [30] = target: T8, Protein A of S. aureus (ELISA on S. aureus Newman Δspa as printed) (Staphylococcus aureus); assay: ELISA, plate coated with S. aureus Newman Δspa, luminescence
# T8 construct: whole, on cells
# T3 sequence (P02745 23-245, chain 1 of 3): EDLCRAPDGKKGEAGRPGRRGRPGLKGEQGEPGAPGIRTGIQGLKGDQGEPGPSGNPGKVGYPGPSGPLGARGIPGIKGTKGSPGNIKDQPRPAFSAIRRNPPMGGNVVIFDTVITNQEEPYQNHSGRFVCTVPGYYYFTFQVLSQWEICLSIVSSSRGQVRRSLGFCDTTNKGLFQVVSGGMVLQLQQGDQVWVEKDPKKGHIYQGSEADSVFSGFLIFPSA
# T3 sequence (P02746 28-253, chain 2 of 3): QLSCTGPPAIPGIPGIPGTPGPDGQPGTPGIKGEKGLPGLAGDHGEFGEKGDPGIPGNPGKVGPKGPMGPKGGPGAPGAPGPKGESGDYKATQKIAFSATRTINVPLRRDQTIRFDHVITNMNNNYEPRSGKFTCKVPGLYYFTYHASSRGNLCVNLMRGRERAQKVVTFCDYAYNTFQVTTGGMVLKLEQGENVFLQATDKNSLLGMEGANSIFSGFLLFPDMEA
# T3 sequence (P02747 29-245, chain 3 of 3): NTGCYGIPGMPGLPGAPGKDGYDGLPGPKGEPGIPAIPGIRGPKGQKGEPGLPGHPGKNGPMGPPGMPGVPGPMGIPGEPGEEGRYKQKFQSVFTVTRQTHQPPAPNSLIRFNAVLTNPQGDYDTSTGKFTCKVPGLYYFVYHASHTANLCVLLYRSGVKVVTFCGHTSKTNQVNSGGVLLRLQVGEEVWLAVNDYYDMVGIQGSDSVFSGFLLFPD
# T4 sequence (P02745 23-245, chain 1 of 3): as the sequence (P02745 23-245, chain 1 of 3) above
# T4 sequence (P02746 28-253, chain 2 of 3): as the sequence (P02746 28-253, chain 2 of 3) above
# T4 sequence (P02747 29-245, chain 3 of 3): as the sequence (P02747 29-245, chain 3 of 3) above
# Sequence of mouse C1q (P98086 23-245 limits assumed, chain 1 of 3): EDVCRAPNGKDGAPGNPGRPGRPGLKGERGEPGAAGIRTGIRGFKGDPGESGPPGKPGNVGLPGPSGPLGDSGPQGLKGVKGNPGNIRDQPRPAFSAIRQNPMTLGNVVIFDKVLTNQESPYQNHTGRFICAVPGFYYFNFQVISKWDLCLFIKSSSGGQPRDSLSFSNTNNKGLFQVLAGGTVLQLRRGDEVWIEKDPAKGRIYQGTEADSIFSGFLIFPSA
# Sequence of mouse C1q (P14106 26-253 limits assumed, chain 2 of 3): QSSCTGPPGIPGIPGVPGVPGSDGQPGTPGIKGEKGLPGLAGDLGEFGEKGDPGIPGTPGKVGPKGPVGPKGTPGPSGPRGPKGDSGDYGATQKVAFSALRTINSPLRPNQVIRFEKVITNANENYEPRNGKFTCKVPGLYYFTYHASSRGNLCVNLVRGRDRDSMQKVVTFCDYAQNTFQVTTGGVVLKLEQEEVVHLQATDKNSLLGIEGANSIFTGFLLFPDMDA
# Sequence of mouse C1q (Q02105 30-246 limits assumed, chain 3 of 3): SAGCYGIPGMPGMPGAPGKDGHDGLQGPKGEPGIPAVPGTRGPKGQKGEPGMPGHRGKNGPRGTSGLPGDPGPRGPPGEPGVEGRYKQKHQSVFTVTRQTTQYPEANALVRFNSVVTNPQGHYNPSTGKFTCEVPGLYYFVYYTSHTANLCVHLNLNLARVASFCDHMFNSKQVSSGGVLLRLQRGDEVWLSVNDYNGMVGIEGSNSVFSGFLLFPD
binder,measurement,setting,value
"REGN6546, anti-GITR x anti-C1q bispecific antibody (bispecific antibody, V domains shown) VH 1: QVQLQESGPGLVKPSETLSLTCIVSGGSISGYFWNWIRQPPGKGLEWIGYIYYSGTTIYNPSLKSRFTISLDTSKNQFSLKLTSVTAADTAVYYCARESYNPSPRYFDHWGQGTLVTVSS VH 2: EVQLVQSGAEVKKPGESLKIFCKGSGYSFINDWIGWVRQMPGKGLEWMGLIFPGDSDTRYSPVFQGHVTISADQSIDTAYLQWNSLKASDTAIYYCAVLRYWHFAIWGRGTLVTVSS VL: not shown",Kd,[1],0.753 nM
same,koff,[1],0.00409 s⁻¹
same,kon,[1],5.43e+06 M⁻¹ s⁻¹
same,Kd,[2],4.61 nM
same,koff,[2],0.0031 s⁻¹
same,kon,[2],673000 M⁻¹ s⁻¹
same,EC50,[3],23.5 nM
same,Kd,[4],8.54 µM
same,koff,[4],0.687 s⁻¹
same,kon,[4],80500 M⁻¹ s⁻¹
same,Kd,[5],16 nM
same,koff,[5],0.019 s⁻¹
same,kon,[5],1.19e+06 M⁻¹ s⁻¹
same,Kd,[6],4.63 nM
same,koff,[6],0.0227 s⁻¹
same,kon,[6],4.9e+06 M⁻¹ s⁻¹
same,Kd,[7],1880 nM
same,koff,[7],0.413 s⁻¹
same,kon,[7],220000 M⁻¹ s⁻¹
same,Kd,[8],7.52 nM and 20.9 nM
same,kon,[8],453000 M⁻¹ s⁻¹ and 543000 M⁻¹ s⁻¹
"REGN5066, anti-IsdB x anti-C1q bispecific antibody (bispecific antibody, V domains shown, also called bsC1q × IsdB; bs hC1q × IsdB) VH 1: EVQLVESGGGLVQPGRSLRLSCTTSGFTFDDYAMHWVRQVPGQGLEWVAGLSWNSDTIGYADSVKGRFTISRDNAKNSLYLQMKSLKAEDTALYYCTKDFYHSLNNWNYYYFDYWGQGTLVTVSS VH 2: EVQLVESGGGVVQPGGSLRLSCAASGFSLDDYAMHWVRQTPGKGLEWVSLISGDGSRTSYADSVKGRFTISRDNSKNSLYLKMNSLRTEDTALYYCTKDPHNSNWFDPWGQGTLVTVSS VL: not shown",Maximum binding (RLUs),[9],2500 RLU
same,Kd,[10],2.3 nM
same,koff,[10],0.00105 s⁻¹
same,kon,[10],457000 M⁻¹ s⁻¹
same,t1/2,[10],11 min
same,EC50,[11],0.19 nM
same,Kd,[12],666 nM
same,koff,[12],0.0782 s⁻¹
same,kon,[12],117000 M⁻¹ s⁻¹
same,t1/2,[12],0.15 min
same,Kd,[13],3.43 nM
same,T1/2,[13],21 min
same,koff,[13],0.000557 s⁻¹
same,kon,[13],163000 M⁻¹ s⁻¹
same,"C1q deposition on S. aureus (plate-based, anti-C1q detection), EC50",[14],127 pM
same,Kd,[15],3.23 nM
same,T1/2,[15],3.5 min
same,koff,[15],0.00334 s⁻¹
same,kon,[15],1.03e+06 M⁻¹ s⁻¹
same,Kd,[16],402 nM
same,koff,[16],0.0366 s⁻¹
same,kon,[16],91100 M⁻¹ s⁻¹
same,t1/2,[16],0.32 min
same,Kd,[17],7.52 nM
same,koff,[17],0.00657 s⁻¹
same,kon,[17],874000 M⁻¹ s⁻¹
same,t½,[17],1.8 min
same,Kd,[18],0.842 nM
same,koff,[18],0.00211 s⁻¹
same,kon,[18],2.51e+06 M⁻¹ s⁻¹
same,t1/2,[18],5.5 min
same,koff,[19],0.00502 s⁻¹
same,kon,[19],3.22e+06 M⁻¹ s⁻¹
same,t1/2,[19],2.3 min
same,Kd,[20],1.56 nM
same,T1/2,[20],2.3 min
same,koff,[20],0.00502 s⁻¹
same,kon,[20],3.22e+06 M⁻¹ s⁻¹
same,Kd,[21],3.43 nM
same,koff,[21],0.000557 s⁻¹
same,kon,[21],163000 M⁻¹ s⁻¹
same,t1/2,[21],20.7 min
same,CDC EC50 (H1N1-infected MDCK cells),[22],> 889 nM
same,Maximum percent specific lysis (CDC of H1N1-infected MDCK cells),[22],-6.15%
same,Kd,[23],3.67 µM
same,T1/2,[23],0.12 min
same,koff,[23],0.0964 s⁻¹
same,kon,[23],26200 M⁻¹ s⁻¹
same,binding result,[24],no binding
same,Kd,[25],2.36 nM
same,koff,[25],0.00027 s⁻¹
same,kon,[25],115000 M⁻¹ s⁻¹
same,t1/2,[25],42.8 min
same,Kd,[26],7.52 nM
same,T1/2,[26],1.8 min
same,koff,[26],0.00657 s⁻¹
same,kon,[26],874000 M⁻¹ s⁻¹
"REGN5067, anti-IsdB x anti-C1q bispecific antibody (bispecific antibody, V domains shown) VH 1: EVQLVESGGGLVQPGRSLRLSCTTSGFTFDDYAMHWVRQVPGQGLEWVAGLSWNSDTIGYADSVKGRFTISRDNAKNSLYLQMKSLKAEDTALYYCTKDFYHSLNNWNYYYFDYWGQGTLVTVSS VH 2: EVQLVQSGAEVKKPGESLKIFCKGSGYSFINDWIGWVRQMPGKGLEWMGLIFPGDSDTRYSPVFQGHVTISADQSIDTAYLQWNSLKASDTAIYYCAVLRYWHFAIWGRGTLVTVSS VL: not shown",Kd,[27],2180 nM
same,Kd,[28],3.77 µM
same,Kd,[10],3.01 nM
same,koff,[10],0.000989 s⁻¹
same,kon,[10],328000 M⁻¹ s⁻¹
same,t1/2,[10],11.7 min
same,koff,[12],0.844 s⁻¹
same,kon,[12],224000 M⁻¹ s⁻¹
same,t1/2,[12],0.01 min
same,koff,[16],0.365 s⁻¹
same,kon,[16],168000 M⁻¹ s⁻¹
same,t1/2,[16],0.03 min
same,koff,[18],0.00435 s⁻¹
same,kon,[18],5.78e+06 M⁻¹ s⁻¹
same,t1/2,[18],2.7 min
same,koff,[19],0.0134 s⁻¹
same,kon,[19],6.52e+06 M⁻¹ s⁻¹
same,t1/2,[19],0.9 min
same,Kd,[21],3.33 nM
same,koff,[21],0.00052 s⁻¹
same,kon,[21],156000 M⁻¹ s⁻¹
same,t1/2,[21],22.2 min
same,Kd,[29],2.05 nM
same,Kd,[25],1.7 nM
same,koff,[25],0.000204 s⁻¹
same,kon,[25],120000 M⁻¹ s⁻¹
same,t1/2,[25],56.6 min
"REGN5551, anti-Protein A x anti-C1q bispecific antibody (bispecific antibody, V domains shown, also called bsC1q × Protein A; bs hC1q × protein A) VH 1: EVQLVESGGGLVQPGGSLRLSCAASGFTFTSYDMHWVRQATGKGLEWVSNIDPAGNTFYPGSVKGRFTISRENAKKSLYLQMNSLRAGDTAVYYCARNLGNWGYDHWGQGTLVTVSS VH 2: EVQLVESGGGVVQPGGSLRLSCAASGFSLDDYAMHWVRQTPGKGLEWVSLISGDGSRTSYADSVKGRFTISRDNSKNSLYLKMNSLRTEDTALYYCTKDPHNSNWFDPWGQGTLVTVSS VL: not shown",EC50,[30],0.148 nM
same,Kd,[20],1.36 nM
same,koff,[20],0.00488 s⁻¹
same,kon,[20],3.06e+06 M⁻¹ s⁻¹
